Laboratory results from patent publication US20250249039A1 (published 2025).

Molecular target: T1, PRAME peptide on HLA-A*02:01 (human)
T1 peptide: SLLQHLIGL
Experiment: multimer staining

binding result: recognises
B1: PRAME-425-358 (TCR, V domains shown)
Valpha: QQPVQSPQAVILREGEDAVINCSSSKALYSVHWYRQKHGEAPVFLMILLKGGEQKGHDKISASFNEKKQQSSLYLTASQLSYSGTYFCGTEGTGDYKLSFGAGTTVTVRA
Vbeta: EAQVTQNPRYLITVTGKKLTVTCSQNMNHEYMSWYRQDPGLGLRQIYYSMNVEVTDKGDVPEGYKVSRKEKRNFPLILESPSPNQTSLYFCASSAGTGGHEQYFGPGTRLTVT
